From patent publication US20040138118 come the findings set out here.

Series [1] addresses myostatin pro peptide (wild type).
The target in series [2] is T1, 20-mer D to A mutant peptide (SEQ ID NO:20).
T1 chain: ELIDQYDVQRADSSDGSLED

Series [3] has as its target T2, 30-mer R to Q mutant peptide (SEQ ID NO:16).
T2 chain: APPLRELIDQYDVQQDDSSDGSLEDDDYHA

The target of series [4] is T3, 40-mer R to Q mutant peptide (SEQ ID NO:13).
T3 chain: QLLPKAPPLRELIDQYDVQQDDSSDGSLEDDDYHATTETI

Series [5] concerns the target T4, 20-mer wild type myostatin pro peptide peptide (SEQ ID NO:18).
T4 chain: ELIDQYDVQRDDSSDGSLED

For series [6], the target named is T5, 30-mer wild type myostatin pro peptide peptide (SEQ ID NO:15).
T5 chain: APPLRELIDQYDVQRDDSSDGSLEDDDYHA

Series [7] concerns the target T6, 40-mer D to A mutant peptide (SEQ ID NO:14).
T6 chain: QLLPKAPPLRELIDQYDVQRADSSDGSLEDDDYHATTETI

Series [8] concerns the target T7, 30-mer D to A mutant peptide (SEQ ID NO:17).
T7 chain: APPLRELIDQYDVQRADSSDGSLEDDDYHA

Series [9] addresses T8, 20-mer R to Q mutant peptide (SEQ ID NO:19).
T8 chain: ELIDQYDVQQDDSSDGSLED

Series [10] deals with T9, 40-mer wild type myostatin pro peptide peptide (SEQ ID NO:12).
T9 chain: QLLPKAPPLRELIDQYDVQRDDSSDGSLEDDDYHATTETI

The target of series [11] is D76A mutant myostatin pro peptide.
Sequence of D76A mutant myostatin pro peptide (chain, as listed by the source D76A): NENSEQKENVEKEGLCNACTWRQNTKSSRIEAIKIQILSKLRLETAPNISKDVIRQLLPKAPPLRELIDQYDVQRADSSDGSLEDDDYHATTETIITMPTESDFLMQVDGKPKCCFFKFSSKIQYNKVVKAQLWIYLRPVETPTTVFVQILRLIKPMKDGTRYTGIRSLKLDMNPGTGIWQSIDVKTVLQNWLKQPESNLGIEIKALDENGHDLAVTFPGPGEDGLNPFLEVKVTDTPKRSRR

B1: mammalian Tolloid-like-2 (mTLL-2) (protein)
chain: ATTSRTERIWPGGVIPYVIGGNFTGSQRAIFKQAMRHWEKHTCVTFIERTDEESFIVFSYRTCGCCSYVGRRGGGPQAISIGKNCDKFGIVAHELGHVVGFWHEHTRPDRDQHVTIIRENIQPGQEYNFLKMEAGEVSSLGETYDFDSIMHYARNTFSRGVFLDTILPRQDDNGVRPTIGQRVRLSQGDIAQARKLYKCPACGETLQDTTGNFSAPGFPNGYPSYSHCVWRISVTPGEKIVLNFTSMDLFKSRLCWYDYVEVRDGYWRKAPLLGRFCGDKIPEPLVSTDSRLWVEFRSSSNILGKGFFAAYEATCGGDMNKDAGQIQSPNYPDDYRPSKECVWRITVSEGFHVGLTFQAFEIERHDSCAYDYLEVRDGPTEESALIGHFCGYEKPEDVKSSSNRLWMKFVSDGSINKAGFAANFFKEVDECSWPDHGGCEHRCVNTLGSYKCACDPGYELAADKKMCEVACGGFITKLNGTITSPGWPKEYPTNKNCVWQVVAPAQYRISLQFEVFELEGNDVCKYDFVEVRSGLSPDAKLHGRFCGSETPEVITSQSNNMRVEFKSDNTVSKRGFRAHFFSDKDECAKDNGGCQHECVNTFGSYLCRCRNGYWLHENGHDCKEAGCAHKISSVEGTLASPNWPDKYPSRRECTWNISSTAGHRVKLTFNEFEIEQHQECAYDHLEMYDGPDSLAPILGRFCGSKKPDPTVASGSSMFLRFYSDASVQRKGFQAVHSTECGGRLKAEVQTKELYSHAQFGDNNYPSEARCDWVIVAEDGYGVELTFRTFEVEEEADCGYDYMEAYDGYDSSAPRLGRFCGSGPLEEIYSAGDSLMIRFRTDDTINKKGFHARYTSTKFQDALHMKK
On to B1, for which, in [1], the “partial proteolytic cleavage of the pro peptide in the latent complex, western blot (FIG. 3E)” value (from here on “partial proteolytic cleavage”) was “BMP-1, mTLL-1, and mTLL-2, were approximately equally effective in cleaving the pro peptide”. Also, the “proteolytic cleavage of free pro peptide” value in series [1] is given as “All four of these proteinases also cleaved pro peptide that had been purified away from the C-terminal dimer”. In addition, the “proteolytic cleavage, SDS-PAGE and western blot with anti-pro peptide antiserum” value in series [1] is listed as “A discrete proteolytic cleavage product of the pro peptide was detected in each reaction containing one of the four proteases”. Further, the “peptide cleavage, HPLC and mass spectrometry” value in series [2] is “the peptides containing the D→A mutation at the P1′ position were not cleaved”; in series [3], “The 40-mer, 30-mer, and 20-mer wild type and R→Q mutant peptides were cleaved by conditioned media containing TLL-2”; in series [4], “The 40-mer, 30-mer, and 20-mer wild type and R→Q mutant peptides were cleaved by conditioned media containing TLL-2”; in series [5], “The 40-mer, 30-mer, and 20-mer wild type and R→Q mutant peptides were cleaved by conditioned media containing TLL-2”; in series [6], “The 40-mer, 30-mer, and 20-mer wild type and R→Q mutant peptides were cleaved by conditioned media containing TLL-2”; in series [7] it was “the peptides containing the D→A mutation at the P1′ position were not cleaved”. Also, the “peptide cleavage, HPLC and mass spectrometry” value in series [8] is “the peptides containing the D→A mutation at the P1′ position were not cleaved”; in series [9], “The 40-mer, 30-mer, and 20-mer wild type and R→Q mutant peptides were cleaved by conditioned media containing TLL-2”; in [10] it was “The 40-mer, 30-mer, and 20-mer wild type and R→Q mutant peptides were cleaved by conditioned media containing TLL-2”. The “proteolytic cleavage of the mutant pro peptide in the latent complex, western blot (FIGS. 3D and E)” value (shortened to “proteolytic cleavage … (FIGS. 3D and E)”) in series [11] is listed as “completely resistant to proteolysis by each of the four proteinases”.

B2: bone morphogenic protein-1 (BMP-1) (protein)
chain: AATSRPERVWPDGVIPFVIGGNFTGSQRAVFRQAMRHWEKHTCVTFLERTDEDSYIVFTYRPCGCCSYVGRRGGGPQAISIGKNCDKFGIVVHELGHVVGFWHEHTRPDRDRHVSIVRENIQPGQEYNFLKMEPQEVESLGETYDFDSIMHYARNTFSRGIFLDTIVPKYEVNGVKPPIGQRTRLSKGDIAQARKLYKCPACGETLQDSTGNFSSPEYPNGYSAHMHCVWRISVTPGEKIILNFTSLDLYRSRLCWYDYVEVRDGFWRKAPLRGRFCGSKLPEPIVSTDSRLWVEFRSSSNWVGKGFFAVYEAICGGDVKKDYGHIQSPNYPDDYRPSKVCIWRIQVSEGFHVGLTFQSFEIERHDSCAYDYLEVRDGHSESSTLIGRYCGYEKPDDIKSTSSRLWLKFVSDGSINKAGFAVNFFKEVDECSRPNRGGCEQRCLNTLGSYKCSCDPGYELAPDKRRCEAACGGFLTKLNGSITSPGWPKEYPPNKNCIWQLVAPTQYRISLQFDFFETEGNDVCKYDFVEVRSGLTADSKLHGKFCGSEKPEVITSQYNNMRVEFKSDNTVSKKGFKAHFFSEKRPALQPPRGRPHQLKFRVQKRNRTPQ
On to B2, for which, in [1], the “partial proteolytic cleavage” value was “BMP-1, mTLL-1, and mTLL-2, were approximately equally effective in cleaving the pro peptide”; the “proteolytic cleavage of free pro peptide” value was “All four of these proteinases also cleaved pro peptide that had been purified away from the C-terminal dimer”; the “proteolytic cleavage of the pro peptide in the latent complex, western blot (FIG. 3D)” value is “incubation of the purified latent complex with purified BMP-1 resulted in complete cleavage of the pro peptide to generate a single product”; the “proteolytic cleavage, SDS-PAGE and western blot with anti-pro peptide antiserum” value is “A discrete proteolytic cleavage product of the pro peptide was detected in each reaction containing one of the four proteases”. Besides, the “proteolytic cleavage … (FIGS. 3D and E)” value in [11] is recorded as “completely resistant to proteolysis by each of the four proteinases”.

B3: mammalian Tolloid-like-1 (mTLL-1) (protein)
chain: AATSRTERIWPGGVIPYVIGGNFTGSQRAMFKQAMRHWEKHTCVTFIERSDEESYIVFTYRPCGCCSYVGRRGNGPQAISIGKNCDKFGIVVHELGHVIGFWHEHTRPDRDNHVTIIRENIQPGQEYNFLKMEPGEVNSLGERYDFDSIMHYARNTFSRGMFLDTILPSRDDNGIRPAIGQRTRLSKGDIAQARKLYRCPACGETLQESNGNLSSPGFPNGYPSYTHCIWRVSVTPGEKIVLNFTTMDLYKSSLCWYDYIEVRDGYWRKSPLLGRFCGDKLPEVLTSTDSRMWIEFRSSSNWVGKGFAAVYEAICGGEIRKNEGQIQSPNYPDDYRPMKECVWKITVSESYHVGLTFQSFEIERHDNCAYDYLEVRDGTSENSPLIGRFCGYDKPEDIRSTSNTLWMKFVSDGTVNKAGFAANFFKEEDECAKPDRGGCEQRCLNTLGSYQCACEPGYELGPDRRSCEAACGGLLTKLNGTITTPGWPKEYPPNKNCVWQVVAPTQYRISVKFEFFELEGNEVCKYDYVEIWSGLSSESKLHGKFCGAEVPEVITSQFNNMRIEFKSDNTVSKKGFKAHFFSDKDECSKDNGGCQHECVNTMGSYMCQCRNGFVLHDNKHDCKEAECEQKIHSPSGLITSPNWPDKYPSRKECTWEISATPGHRIKLAFSEFEIEQHQECAYDHLEVFDGETEKSPILGRLCGNKIPDPLVATGNKMFVRFVSDASVQRKGFQATHSTECGGRLKAESKPRDLYSHAQFGDNNYPGQVDCEWLLVSERGSRLELSFQTFEVEEEADCGYDYVELFDGLDSTAVGLGRFCGSGPPEEIYSIGDSVLIHFHTDDTINKKGFHIRYKSIRYPDTTHTKK
Turning to B3, in series [1], the “partial proteolytic cleavage” value was “BMP-1, mTLL-1, and mTLL-2, were approximately equally effective in cleaving the pro peptide”; the “proteolytic cleavage of free pro peptide” value is listed as “All four of these proteinases also cleaved pro peptide that had been purified away from the C-terminal dimer”; the “proteolytic cleavage, SDS-PAGE and western blot with anti-pro peptide antiserum” value was “A discrete proteolytic cleavage product of the pro peptide was detected in each reaction containing one of the four proteases”. For the same protein, the “proteolytic cleavage … (FIGS. 3D and E)” value in [11] is listed as “completely resistant to proteolysis by each of the four proteinases”.
